The values that follow come from article PMC3960984 (Nature structural & molecular biology, 2012).

No end group written: not given here.

The target in this assay is human LRH-1 LBD (residues 299-541), loaded with DLPC (human, UniProt O00482 299-541). Nature of the assay: fluorescence polarisation.
Chain of human LRH-1 LBD (residues 299-541), loaded with DLPC (O00482 299-541): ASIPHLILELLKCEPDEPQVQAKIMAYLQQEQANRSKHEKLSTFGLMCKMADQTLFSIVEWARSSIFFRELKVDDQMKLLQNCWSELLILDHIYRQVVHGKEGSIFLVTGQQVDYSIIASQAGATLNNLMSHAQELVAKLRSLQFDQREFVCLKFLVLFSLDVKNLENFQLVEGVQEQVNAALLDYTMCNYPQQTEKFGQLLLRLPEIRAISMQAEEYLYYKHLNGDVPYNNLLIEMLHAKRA

Turning to EEPSLLKKLLLAPA (also: fluorescein label, position not given here) [fluorescein labeled peptide derived from human PGC-1α NR Box 2], the binding result was “binds”.
With PVSPKKKENALLRYLLDKDDT (also: fluorescein label, position not given here) [fluorescein labeled peptide derived from TIF2 NR Box 3] the entry was “binds”; with SPSSHSSLTERHKILHRLLQEGSP (also: fluorescein label, position not given here) [fluorescein labeled peptide derived from SRC-1 NR Box 2], “binds”.
